The source of these data is PMC3829993.

Substrate in series [1]: NC(=O)C1=CN([C@@H]2O[C@H](COP(=O)(O)OP(=O)(O)OC[C@H]3O[C@@H](n4cnc5c(N)ncnc54)[C@H](OP(=O)(O)O)[C@@H]3O)[C@@H](O)[C@H]2O)C=CC1
Nature of the series: purified protein. The note with it: varied: cofactor.

Substrate in series [2]: NC(=O)C1=CN([C@@H]2O[C@H](COP(=O)(O)OP(=O)(O)OC[C@H]3O[C@@H](n4cnc5c(N)ncnc54)[C@H](O)[C@@H]3O)[C@@H](O)[C@H]2O)C=CC1
Nature of the series: purified protein. The note with it: varied: cofactor.

B1: SMFMO (Stenotrophomonas maltophilia K279a) (protein)
chain: MDSVDVVVIGGGQSGLSAGYFLRRSGLSYVILDAEASPGGAWQHAWHSLHLFSPAGWSSIPGWPMPASQGPYPARAEVLAYLAQYEQKYALPVLRPIRVQRVSHFGERLRVVARDGRQWLARAVISATGTWGEAYTPEYQGLESFAGIQLHSAHYSTPAPFAGMRVAIIGGGNSGAQILAEVSTVAETTWITQHEPAFLADDVDGRVLFERATERWKAQQEGREPDLPPGGFGDIVMVPPVLDARARGVLAAVPPPARFSPTGMQWADGTERAFDAVIWCTGFRPALSHLKGLDLVTPQGQVEVDGSGLRALAVPSVWLLGYGDWNGMASATLIGVTRYAREAVRQVTAYCADHQDR
Consider B1, for which, in “purified protein [1]”, the Km is 27.3 ± 5.3 M x 10^-6, the kcat came to 0.022 ± 0.002 s⁻¹ and the kcat/Km is 805 M⁻¹ s⁻¹. Moreover, in the series “purified protein [2]”, the Km amounted to 23.7 ± 9.1 M x 10^-6, the kcat amounted to 0.029 ± 0.003 s⁻¹ and the kcat/Km came out at 1220 M⁻¹ s⁻¹.
